Reference: publication PMC9541495, “Understanding the interaction of 14‐3‐3 proteins with hDMX and hDM2: a structural and biophysical study” (The Febs Journal, 2022)
[ ]: non-standard residue; d: D form. pS = N[C@@H](COP(=O)(O)O)C(=O)O; FAM = 5,6-carboxyfluorescein; Ahx = NCCCCCC(=O)O

T1: 14‐3‐3η (human, UniProt Q04917 1-246)
T1 construct: 14-3-3 eta, human, full-length protein from the pProEx HTb-His-14-3-3 construct; Captured on an NTA chip in SPR; source: E. coli BL21(DE3), purified (Ni2+-NTA, dialysis)
T1 sequence (looked up): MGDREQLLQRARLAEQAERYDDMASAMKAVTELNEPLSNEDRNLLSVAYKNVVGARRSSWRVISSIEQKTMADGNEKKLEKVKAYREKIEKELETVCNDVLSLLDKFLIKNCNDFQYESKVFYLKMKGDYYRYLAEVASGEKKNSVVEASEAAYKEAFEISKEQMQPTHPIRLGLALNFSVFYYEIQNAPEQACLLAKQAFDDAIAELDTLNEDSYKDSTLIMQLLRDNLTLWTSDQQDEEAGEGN

T2: 14‐3‐3ε (human, UniProt P62258 1-255)
T2 construct: 14-3-3 epsilon, human, full-length protein from the pProEx HTb-His-14-3-3 construct; Written as the protomer; tag removal is told only for the ∆C proteins; source: E. coli BL21(DE3), purified (Ni2+-NTA, dialysis)
T2 sequence (looked up): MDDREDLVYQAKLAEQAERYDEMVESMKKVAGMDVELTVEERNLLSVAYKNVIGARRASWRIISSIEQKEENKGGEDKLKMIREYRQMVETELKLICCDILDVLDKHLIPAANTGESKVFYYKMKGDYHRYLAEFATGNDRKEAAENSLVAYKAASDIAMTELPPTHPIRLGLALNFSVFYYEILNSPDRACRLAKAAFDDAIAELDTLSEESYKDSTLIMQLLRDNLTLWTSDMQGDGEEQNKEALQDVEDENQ

B1: FAM‐Ahx‐hDM2_(160‐171) ^pSer166 (peptide)
peptide: {FAM-Ahx}-SRRRAI[pS]ETEEN-NH2
notes: hDM2 (human double minute 2 protein), human, residues 160-171; Tracer form used in the FA assays; also called hDM2_(160‐171) ^Ser166; source: synthetic peptide (Fmoc SPPS, HPLC purified)
B2: FAM‐Ahx‐hDMX_(361‐374) ^pSer367 (peptide)
peptide: {FAM-Ahx}-DCRRTI[pS]APVVRPK-NH2
notes: Tracer form used in the FA assays; source: synthetic peptide (Fmoc SPPS, HPLC purified)
B3: FAM‐Ahx‐hDM2_(180‐192) ^pSer186 (peptide)
peptide: {FAM-Ahx}-QRKRHK[pS]DSISLS-NH2
notes: hDM2 (human double minute 2 protein), human, residues 180-192; Tracer form used in the FA assays; source: synthetic peptide (Fmoc SPPS, HPLC purified)
B4: FAM‐Ahx‐hDMX_(335‐349) ^pSer342 (peptide)
peptide: {FAM-Ahx}-SKLTHSL[pS]TSDITAI-NH2
notes: hDMX (human double minute 4 protein, hDM4), human, residues 335-349; Tracer form used in the FA assays; source: synthetic peptide (Fmoc SPPS, HPLC purified)

These binders were tested against T1, 14‐3‐3η (assay: fluorescence polarisation; fluorescence anisotropy, direct titration: 14-3-3 protein titrated (1/2 dilution series) against 50 nM FAM-Ahx tracer peptide; 10 mM HEPES, 150 mM NaCl, 0.1% Tween 20, 0.1% BSA, pH 7.4; 384 well plates, triplicates; protein concentration as 14-3-3 monomer; 1:1 fit, biphasic curves fitted as two separate 1:1 events (Kd1, Kd2)). Details: both partners purified.

Row | Kd | Binder
1 | 10.2 ± 0.3 µM | B1
2 | 0.099 ± 0.005 µM | B2
3 | 31.6 ± 1.9 µM | B3
4 | 20 ± 1.2 µM | B4

What follows are binders tested against T2, 14‐3‐3ε in the same assay as above. Details: both partners purified.

Row | Kd | Binder
5 | 23 ± 1.2 µM | B1
6 | 2.7 ± 0.2 µM | B2
7 | > 260 µM | B3
8 | 53.4 ± 2.9 µM | B4
